According to patent publication US20240228562A1 (Pieris, published 2024):

T1: huCYR61 (human, UniProt O00622 25-381, limits assumed)
T1 construct: also called human CYR61 (CCN1)
T1 sequence (looked up): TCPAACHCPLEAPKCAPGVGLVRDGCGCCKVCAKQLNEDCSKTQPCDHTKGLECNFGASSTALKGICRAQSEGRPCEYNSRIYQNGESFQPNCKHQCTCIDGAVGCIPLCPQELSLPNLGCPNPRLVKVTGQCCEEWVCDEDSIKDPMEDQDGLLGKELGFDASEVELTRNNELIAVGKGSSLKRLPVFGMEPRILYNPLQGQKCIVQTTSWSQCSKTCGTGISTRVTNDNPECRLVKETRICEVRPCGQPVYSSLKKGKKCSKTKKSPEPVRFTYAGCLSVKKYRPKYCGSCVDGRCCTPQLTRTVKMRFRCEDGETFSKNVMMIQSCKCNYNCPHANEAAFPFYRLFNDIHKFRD

T2: huNOV (human, UniProt P48745 32-357, limits assumed)
T2 construct: also called human NOV (CCN3)
T2 sequence (looked up): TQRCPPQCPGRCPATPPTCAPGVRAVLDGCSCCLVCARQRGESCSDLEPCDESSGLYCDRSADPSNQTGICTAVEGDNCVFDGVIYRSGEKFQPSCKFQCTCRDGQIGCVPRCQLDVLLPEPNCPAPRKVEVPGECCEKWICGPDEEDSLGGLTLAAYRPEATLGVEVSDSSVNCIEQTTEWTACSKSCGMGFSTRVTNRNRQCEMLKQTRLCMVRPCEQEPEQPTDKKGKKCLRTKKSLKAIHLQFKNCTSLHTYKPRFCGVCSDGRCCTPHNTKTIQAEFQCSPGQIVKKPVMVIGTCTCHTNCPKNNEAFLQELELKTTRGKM

T3: huWISP-1 (human, UniProt O95388 23-367, limits assumed)
T3 construct: also called human WISP-1 (CCN4)
T3 sequence (looked up): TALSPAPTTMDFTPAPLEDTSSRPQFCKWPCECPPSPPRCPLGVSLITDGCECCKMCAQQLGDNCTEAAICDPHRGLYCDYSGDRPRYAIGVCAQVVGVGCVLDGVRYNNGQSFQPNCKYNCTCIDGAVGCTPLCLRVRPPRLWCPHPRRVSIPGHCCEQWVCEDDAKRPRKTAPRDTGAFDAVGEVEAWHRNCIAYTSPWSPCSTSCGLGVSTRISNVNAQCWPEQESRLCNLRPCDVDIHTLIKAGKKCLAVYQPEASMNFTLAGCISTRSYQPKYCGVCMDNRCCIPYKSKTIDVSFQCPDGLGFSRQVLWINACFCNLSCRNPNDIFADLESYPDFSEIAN

T4: huWISP-2 (human, UniProt O76076 24-250, limits assumed)
T4 construct: also called human WISP-2 (CCN5)
T4 sequence (looked up): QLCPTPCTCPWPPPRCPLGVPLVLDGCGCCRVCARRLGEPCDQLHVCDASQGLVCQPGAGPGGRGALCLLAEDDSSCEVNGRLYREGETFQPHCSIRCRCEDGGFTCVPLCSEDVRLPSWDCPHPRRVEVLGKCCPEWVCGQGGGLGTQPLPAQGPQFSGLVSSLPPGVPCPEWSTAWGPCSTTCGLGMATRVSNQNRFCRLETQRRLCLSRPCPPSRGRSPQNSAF

T5: huWISP-3 (human, UniProt O95389 24-354, limits assumed)
T5 construct: also called human WISP-3 (CCN6)
T5 sequence (looked up): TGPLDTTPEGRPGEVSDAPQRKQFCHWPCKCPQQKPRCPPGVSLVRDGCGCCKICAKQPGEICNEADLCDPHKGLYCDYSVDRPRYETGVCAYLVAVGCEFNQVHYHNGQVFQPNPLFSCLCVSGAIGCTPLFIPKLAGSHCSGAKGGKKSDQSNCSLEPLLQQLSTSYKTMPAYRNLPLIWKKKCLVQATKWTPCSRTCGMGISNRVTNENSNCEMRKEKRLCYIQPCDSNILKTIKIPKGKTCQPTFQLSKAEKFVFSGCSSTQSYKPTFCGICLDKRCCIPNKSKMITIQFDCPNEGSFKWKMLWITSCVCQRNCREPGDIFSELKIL

T6: CTGF expressed by TGF-β1-stimulated normal human lung fibroblasts (NHLFs) (human, UniProt P29279 27-349)
T6 construct: whole, on cells; Cells grown under conditions that facilitate pseudo-3D extracellular matrix deposition; also called CTGF-expressing NHLFs
T6 sequence (looked up): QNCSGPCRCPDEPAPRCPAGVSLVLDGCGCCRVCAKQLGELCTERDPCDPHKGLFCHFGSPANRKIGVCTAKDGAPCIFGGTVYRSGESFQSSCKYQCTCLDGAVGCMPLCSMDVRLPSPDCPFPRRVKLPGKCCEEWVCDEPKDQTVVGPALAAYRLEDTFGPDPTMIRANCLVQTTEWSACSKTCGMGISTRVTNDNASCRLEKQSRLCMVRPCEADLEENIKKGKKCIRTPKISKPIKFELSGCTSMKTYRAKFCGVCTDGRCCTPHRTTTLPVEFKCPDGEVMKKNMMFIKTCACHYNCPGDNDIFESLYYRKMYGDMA

T7: recombinant rat CTGF protein (R&D Systems) (rat, UniProt Q9R1E9 25-347)
T7 construct: Bought; also called rCTGF
T7 sequence: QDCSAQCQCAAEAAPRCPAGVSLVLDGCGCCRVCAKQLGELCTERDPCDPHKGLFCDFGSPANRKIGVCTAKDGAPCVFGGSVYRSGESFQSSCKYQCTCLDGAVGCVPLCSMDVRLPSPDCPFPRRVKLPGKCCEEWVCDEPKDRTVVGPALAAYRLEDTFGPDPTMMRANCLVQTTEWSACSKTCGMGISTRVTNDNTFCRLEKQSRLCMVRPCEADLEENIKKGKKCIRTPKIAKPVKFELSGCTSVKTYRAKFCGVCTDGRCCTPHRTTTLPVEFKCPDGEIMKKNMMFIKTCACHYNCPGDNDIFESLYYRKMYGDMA

B1: lipocalin mutein of SEQ ID NO: 23 (designed binder)
chain: QDSTSDLIPAPPLSKVPLQQNFQDNQFQGKWYVVGVAGNAILRPDKQPAKMFATIYELKEDKSYDVTSVRFEAKSCKYTIKTFVPGSQPGEFTSGQIKSAPGQTSTLVRVVSTNYNQHAMVFFKHVSQNREIFVITLYGRTKELTSELKENFIRFSKSLGLPENHIVFPVPIDQCIDG
notes: also called hNGAL mutein
B2: lipocalin mutein of SEQ ID NO: 6 (designed binder)
chain: QDSTSDLIPAPPLSKVPLQQNFQDNQFQGKWYVVGRAGNNQLREDKSPPKMWATIYELKEDKSYDVTHVHFSTKKCRYIIDTFVPGSQPGEFTAGAIKSGPGLTSPLVRVVSTNYNQHAMVFFKWVTQNREWFTITLYGRTKELTSELKENFIRFSKSLGLPENHIVFPVPIDQCIDG
notes: also called hNGAL mutein; not shown: C-terminal His-tag

Key:
[1] = target: T8, recombinant human CTGF-Fc protein (Creative Biomart) (human); test: SPR (Biacore)
T8 construct: Bought; also called human CTGF with a human IgG1 Fc Tag
T8 sequence (chain, as listed by the source limits assumed): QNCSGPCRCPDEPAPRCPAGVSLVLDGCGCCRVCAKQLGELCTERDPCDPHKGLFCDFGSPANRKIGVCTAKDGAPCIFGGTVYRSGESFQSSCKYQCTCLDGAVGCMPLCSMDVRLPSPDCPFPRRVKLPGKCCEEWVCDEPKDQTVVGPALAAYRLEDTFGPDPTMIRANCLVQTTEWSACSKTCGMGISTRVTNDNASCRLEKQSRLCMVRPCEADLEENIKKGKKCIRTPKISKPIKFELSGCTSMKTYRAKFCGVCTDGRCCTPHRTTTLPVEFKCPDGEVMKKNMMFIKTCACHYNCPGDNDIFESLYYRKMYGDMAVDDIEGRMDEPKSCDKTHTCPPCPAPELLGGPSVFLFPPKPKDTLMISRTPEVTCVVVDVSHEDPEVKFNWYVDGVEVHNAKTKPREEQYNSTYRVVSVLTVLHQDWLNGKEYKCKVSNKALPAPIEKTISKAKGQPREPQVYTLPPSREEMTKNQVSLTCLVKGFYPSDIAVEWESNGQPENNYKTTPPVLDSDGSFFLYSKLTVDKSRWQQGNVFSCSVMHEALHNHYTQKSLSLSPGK
Protocol: (§1) The binding of exemplary lipocalin muteins to human (Creative Biomart), cynomolgus, rat (R&D Systems) and mouse CTGF (Abbexa) was determined by SPR using a Biacore instrument (Cytiva, formerly GE Healthcare). Some targets were fused to a human IgG1 Fc tag, and captured via the anti-human IgG antibody kit, others were directly immobilized.
(§2) For some measurements, human CTGF with a human IgG1 Fc Tag or rat or murine CTGF without a tag were directly immobilized to a CM5 Chip. The carboxyl groups on the chip were activated using 1-ethyl-3-(3-dimethylaminopropyl)-carbodiimide (EDC) and N-hydroxysuccinimide (NHS). […] Residual non-reacted NHS-esters were blocked by passing a solution of 1 M ethanolamine across the surface. The reference channel was activated/deactivated. For the capture setting, targets with an IgG Fc Tag at 0.25-2.5 μg/mL in HBS-EP+ buffer were captured by the anti-human IgG-Fc antibody at the chip surface for 180 s at a flow rate of 10 μL/min.
(§3) The binding assay was carried out with a contact time of 180 s, a dissociation time of 900-3600 s and a flow rate of 30 μL/min. All measurements were performed at 25° C. […] For the directly immobilized targets, the same regeneration conditions were used. Prior to the protein measurements, three startup cycles were performed for conditioning purposes.

huCYR61 = target: T1, huCYR61; test: ELISA, coated CCN protein
Protocol: (§4) Binding of muteins to closely related proteins of CTGF was tested by an ELISA assay. In detail, a 384-well plate suitable for fluorescence measurements (Greiner FLUOTRAC™ 600, black flat bottom, high-binding) was coated with 20 μl of human CTGF or the other members of the CCN protein family at a concentration of 1 μg/ml in PBS over night at 4° C. After washing with PBS with 0.05% Tween 20, wells were blocked with 100 μl blocking buffer containing 0.1% Tween 20 and 2% BSA (PBS-T/BSA) for 1 h at room temperature. 20 μl of serially diluted muteins starting at 1000 nM were incubated in PBS-T/BSA for 1 h at room temperature (RT).
(§5) The residual supernatants were discarded and 20 μl HRP-labeled anti-NGAL or anti-Strep-Tag antibody was added at a predetermined optimal concentration in PBS-T/BSA and incubated for 1 h at RT. After washing, 20 μl fluorogenic HRP substrate (QuantaBlu, Thermo) was added to each well, and the reaction was allowed to proceed for 2 to 60 minutes. The fluorescence intensity of every well on the plate was read using a fluorescence microplate reader (Tecan). When the signal for human CTGF approached saturation, the cross reactivity to the other proteins was assessed.

huNOV = target: T2, huNOV; test: ELISA, coated CCN protein
Protocol: as §4, §5

huWISP-1 = target: T3, huWISP-1; test: ELISA, coated CCN protein
Protocol: as §4, §5

huWISP-2 = target: T4, huWISP-2; test: ELISA, coated CCN protein
Protocol: as §4, §5

huWISP-3 = target: T5, huWISP-3; test: ELISA, coated CCN protein
Protocol: as §4, §5

[2] = target: T6, CTGF expressed by TGF-β1-stimulated …; test: immunofluorescence staining of the lipocalin scaffold (AlexaFluor647 secondary antibody) on NHLFs incubated 24 h with the construct and 10 ng/ml TGF-β1; signal normalised to the NGAL control
Protocol: Binding of the CTGF-targeting lipocalin muteins and fusion proteins disclosed herein to CTGF-expressing, TGF-β1-stimulated normal human lung fibroblasts (NHLFs) was tested by incubating NHLFs for 24 h with constructs and 10 ng/ml TGF-β1, which induces CTGF expression. NHLFs without TGF-β1 stimulation were included as negative control. Constructs were detected with a secondary antibody against the lipocalin scaffold coupled to AlexaFluor647 after NHLFs were fixed in 4% PFA and blocked with 5% BSA. Images were acquired on the Cytation5 Reader (Biotek). Signals were quantified in Gene5 software and normalized to the respective controls.

[3] = target: T7, recombinant rat CTGF protein (R&D …); test: SPR (Biacore); B = binding without determination of kinetics constants
Protocol: as §1, §2, §3

| Binder | Kd [1] [nM] | koff [1] [s⁻¹] | kon [1] [M⁻¹ s⁻¹] | binding result (huCYR61) | binding result (huNOV) | binding result (huWISP-1) | binding result (huWISP-2) | binding result (huWISP-3) | binding result [2] | binding result [3] |
| --- | --- | --- | --- | --- | --- | --- | --- | --- | --- | --- |
| B1 | 0.077 | 9.42e-06 | 122000 | no binding (tested: dilutions starting at 1000 nM) | no binding (tested: dilutions starting at 1000 nM) | no binding (tested: dilutions starting at 1000 nM) | no binding (tested: dilutions starting at 1000 nM) | no binding (tested: dilutions starting at 1000 nM) | binds |  |
| B2 | 0.514 | 0.000149 | 290000 |  |  |  |  |  |  | binds |
